The IC50 is the midpoint of a concentration-inhibition curve. Higher therefore signals weaker potency.

Consider two molecules from patent US20170157188A1.

Assay [1] concerns the target cell-surface mouse PD-1 on EL4 and RMA T lymphoma cells (mouse) (UniProt Q02242). Nature of the assay: flow cytometry competition on EL4 cells against mPD-L1-hFc at 2 µg/ml. (In general: A flow cytometer gives signals particle by particle.)
The target in assay [2] is mouse PD-1 (coated in the competition ELISA) (mouse) (UniProt Q02242). The assay is described as follows: competition ELISA, blocks mouse PD-L1 biot on coated mouse PD-1; dimeric fraction more efficient than monomeric. On the technique in general: An ELISA detects its analyte on a solid surface through an enzyme-linked reagent.

“commercially available anti-mPD-1 antibody J43 (BioXCell)” came in with an IC50 in assay [1] of 1.6 µg/mL.

B1: WRTG18616-encoded anti-mPD-1 scFv, dimeric fraction (scFv, part only; not given: glycine-serine linker, V domains shown)
VH: EVRLLESGGGLVKPEGSLKLSCVASGFTFSDYFMSWVRQAPGKGLEWVAHIYTKSYNYATYYSGSVKGRFTISRDDSRSMVYLQMNNLRTEDTATYYCTRDGSGYPSLDFWGQGTQVTVSS
VL: YELTQPPSASVNVGETVKITCSGDQLPKYFADWFHQRSDQTILQVIYDDNKRPSGIPERISGSSSGTTATLTIRDVRAEDEGDYYCFSGYVDSDSKLYVFGSGTQLTVLHHHHHH
modifications: Dimer of two identical scFv polypeptides (first gel-filtration peak); one copy is given. VH and VL are joined in the real chain by a Gly-Ser linker of undisclosed letters and are given here as two chains.
Consider B1, for which the difference in EC50 against the monomeric scFv in assay [2] was determined as 1 log.
